Measurements from patent US20190309059A1 (SHANGHAI PHARMAEXPLORER, published 2019).

What was measured:
[1] = target: cynomolgus IL-13 (purchased from sino biological) (cynomolgus) (UniProt Q0PW92); test: ELISA, cynomolgus IL-13; antibody at 2.67 nM
[2] = target: cynomolgus IL-13 (purchased from sino biological) (cynomolgus) (UniProt Q0PW92); test: ELISA, cynomolgus IL-13; antibody at 0.021 nM
[3] = target: his-labeled human IL-13 (immunogen A) (human) (UniProt P35225); test: FACS blocking, biotin-IL-13 on IL-13Ra2 HEK293 cells; antibody at 0.27 nM
[4] = target: his-labeled human IL-13 (immunogen A) (human) (UniProt P35225); test: FACS blocking, biotin-IL-13 on IL-13Ra2 HEK293 cells; antibody at 0.05 nM
[5] = target: his-labeled human IL-13 (immunogen A) (human) (UniProt P35225); test: FACS blocking, biotin-IL-13 on IL-13Ra1/IL-4Ra HEK293 cells; antibody at 166.67 nM
[6] = target: his-labeled human IL-13 (immunogen A) (human) (UniProt P35225); test: FACS blocking, biotin-IL-13 on IL-13Ra1/IL-4Ra HEK293 cells; antibody at 0.01 nM
[7] = target: his-labeled human IL-13 (immunogen A) (human) (UniProt P35225); test: FACS blocking, biotin-IL-13 on IL-13Ra2 HEK293 cells; antibody at 166.67 nM
[8] = target: his-labeled human IL-13 (immunogen A) (human) (UniProt P35225); test: FACS blocking, biotin-IL-13 on IL-13Ra2 HEK293 cells; antibody at 1.33 nM
[9] = target: cynomolgus IL-13 (purchased from sino biological) (cynomolgus) (UniProt Q0PW92); test: ELISA, cynomolgus IL-13; antibody at 0.53 nM
[10] = target: his-labeled human IL-13 (immunogen A) (human) (UniProt P35225); test: FACS blocking, biotin-IL-13 on IL-13Ra1/IL-4Ra HEK293 cells; antibody at 1.33 nM
[11] = target: his-labeled human IL-13 (immunogen A) (human) (UniProt P35225); test: FACS blocking, biotin-IL-13 on IL-13Ra2 HEK293 cells; antibody at 0.01 nM
[12] = target: his-labeled human IL-13 (immunogen A) (human) (UniProt P35225); test: FACS blocking, biotin-IL-13 on IL-13Ra1/IL-4Ra HEK293 cells; antibody at 33.33 nM
[13] = target: his-labeled human IL-13 (immunogen A) (human) (UniProt P35225); test: FACS blocking, biotin-IL-13 on IL-13Ra1/IL-4Ra HEK293 cells; antibody at 6.67 nM
[14] = target: his-labeled human IL-13 (immunogen A) (human) (UniProt P35225); test: FACS blocking, biotin-IL-13 on IL-13Ra2 HEK293 cells; antibody at 6.67 nM
[15] = target: his-labeled human IL-13 (immunogen A) (human) (UniProt P35225); test: ELISA, biotin-immunogen A; antibody at 0.001 nM
[16] = target: his-labeled human IL-13 (immunogen A) (human) (UniProt P35225); test: FACS blocking, biotin-IL-13 on IL-13Ra1/IL-4Ra HEK293 cells; antibody at 0.27 nM
[17] = target: cynomolgus IL-13 (purchased from sino biological) (cynomolgus) (UniProt Q0PW92); test: ELISA, cynomolgus IL-13; antibody at 0.11 nM
[18] = target: his-labeled human IL-13 (immunogen A) (human) (UniProt P35225); test: FACS blocking, biotin-IL-13 on IL-13Ra1/IL-4Ra HEK293 cells; antibody at 0.05 nM
[19] = target: his-labeled human IL-13 (immunogen A) (human) (UniProt P35225); test: FACS blocking, biotin-IL-13 on IL-13Ra1/IL-4Ra HEK293 cells; antibody at 0.002 nM
[20] = target: cynomolgus IL-13 (purchased from sino biological) (cynomolgus) (UniProt Q0PW92); test: ELISA, cynomolgus IL-13; antibody at 0.004 nM
[21] = target: his-labeled human IL-13 (immunogen A) (human) (UniProt P35225); test: FACS blocking, biotin-IL-13 on IL-13Ra2 HEK293 cells; antibody at 0.002 nM
[22] = target: his-labeled human IL-13R130Q variant (human) (UniProt P35225); test: ELISA, IL-13R130Q variant; antibody at 13.33 nM
[23] = target: his-labeled human IL-13 (immunogen A) (human) (UniProt P35225); test: FACS blocking, biotin-IL-13 on IL-13Ra2 HEK293 cells; antibody at 33.33 nM
[24] = target: cynomolgus IL-13 (purchased from sino biological) (cynomolgus) (UniProt Q0PW92); test: ELISA, cynomolgus IL-13; antibody at 66.7 nM
[25] = target: his-labeled human IL-13 (immunogen A) (human) (UniProt P35225); test: ELISA, biotin-immunogen A; antibody at 2.67 nM
[26] = target: his-labeled human IL-13 (immunogen A) (human) (UniProt P35225); test: cell-based or functional assay

cynomolgus IL-13 (purchased from sino biological) (cynomolgus), sequence (Q0PW92 entry or part of it): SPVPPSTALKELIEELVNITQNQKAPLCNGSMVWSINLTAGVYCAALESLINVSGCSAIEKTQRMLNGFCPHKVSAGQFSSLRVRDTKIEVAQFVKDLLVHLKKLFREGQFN
his-labeled human IL-13R130Q variant (human), sequence (P35225 other isoform, or with tags, fused parts or gaps mutant): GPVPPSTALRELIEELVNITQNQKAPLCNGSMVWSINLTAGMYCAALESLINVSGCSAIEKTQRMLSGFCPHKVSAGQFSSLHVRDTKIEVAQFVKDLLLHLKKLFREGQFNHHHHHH

In the case of IgG control (mouse IgG) (antibody), the OD450 nm [1] is reported as 0.06, the OD450 nm [2] is reported as 0.07 and the mean fluorescence intensity [3] is reported as 78.9. It also gave a mean fluorescence intensity [4] of 81.3, a mean fluorescence intensity [5] of 17.1 and a mean fluorescence intensity [6] of 72.4. For the same substance, the mean fluorescence intensity [7] was 77, the mean fluorescence intensity [8] was 80.7 and the OD450 nm [9] was 0.09. For the same substance, the mean fluorescence intensity [10] was 37.5, the mean fluorescence intensity [11] was 83.2 and the mean fluorescence intensity [12] was 22.1. The mean fluorescence intensity [13] was 27.7, the mean fluorescence intensity [14] was 77.2 and the OD450 nm [15] was 0.05. The mean fluorescence intensity [16] was 67.9, the OD450 nm [17] was 0.07 and the mean fluorescence intensity [18] was 68.9. For the same substance, the mean fluorescence intensity [19] was 72, the OD450 nm [20] was 0.07 and the mean fluorescence intensity [21] was 79.3. For the same substance, the OD450 nm [22] was 0.09, the mean fluorescence intensity [23] was 82.7 and the OD450 nm [24] was 0.1. The OD450 nm [25] was 0.08, the Periostin (pg/mL), MRCS cells + IL-13 5 ng/mL; control antibody at 0.0002 nM [26] was 6350 pg/mL and the Periostin (pg/mL), MRCS cells + IL-13 5 ng/mL; control antibody at 0.001 nM [26] was 4760 pg/mL. For the same substance, the Periostin (pg/mL), MRCS cells + IL-13 5 ng/mL; control antibody at 0.004 nM [26] was 4290 pg/mL, the Periostin (pg/mL), MRCS cells + IL-13 5 ng/mL; control antibody at 0.021 nM [26] was 4010 pg/mL and the Periostin (pg/mL), MRCS cells + IL-13 5 ng/mL; control antibody at 0.11 nM [26] was 3830 pg/mL. For the same substance, the Periostin (pg/mL), MRCS cells + IL-13 5 ng/mL; control antibody at 0.53 nM [26] was 4920 pg/mL, the Periostin (pg/mL), MRCS cells + IL-13 5 ng/mL; control antibody at 2.67 nM [26] was 5740 pg/mL and the Periostin (pg/mL), MRCS cells + IL-13 5 ng/mL; control antibody at 13.3 nM [26] was 6240 pg/mL. It also gave a TARC (pg/mL), A549 cells + IL-13 5 ng/mL + TNFα; control antibody at 0.001 nM [26] of 2010 pg/mL, a TARC (pg/mL), A549 cells + IL-13 5 ng/mL + TNFα; control antibody at 0.004 nM [26] of 1720 pg/mL and a TARC (pg/mL), A549 cells + IL-13 5 ng/mL + TNFα; control antibody at 0.021 nM [26] of 1740 pg/mL. It also gave a TARC (pg/mL), A549 cells + IL-13 5 ng/mL + TNFα; control antibody at 0.11 nM [26] of 1650 pg/mL, a TARC (pg/mL), A549 cells + IL-13 5 ng/mL + TNFα; control antibody at 0.5 nM [26] of 1640 pg/mL and a TARC (pg/mL), A549 cells + IL-13 5 ng/mL + TNFα; control antibody at 2.7 nM [26] of 1720 pg/mL. For the same substance, the TARC (pg/mL), A549 cells + IL-13 5 ng/mL + TNFα; control antibody at 13.3 nM [26] was 1800 pg/mL, the TARC (pg/mL), A549 cells + IL-13 5 ng/mL + TNFα; control antibody at 66.7 nM [26] was 1870 pg/mL and the TARC (pg/mL), A549 cells + IL-13 + TNFα; control antibody at 0.001 nM [26] was 3120 pg/mL. It also gave a TARC (pg/mL), A549 cells + IL-13 + TNFα; control antibody at 0.001 nM (part 2, with hP4 4H12) [26] of 2920 pg/mL, a TARC (pg/mL), A549 cells + IL-13 + TNFα; control antibody at 0.004 nM [26] of 2980 pg/mL and a TARC (pg/mL), A549 cells + IL-13 + TNFα; control antibody at 0.004 nM (part 2, with hP4 4H12) [26] of 2560 pg/mL. For the same substance, the TARC (pg/mL), A549 cells + IL-13 + TNFα; control antibody at 0.021 nM [26] was 3000 pg/mL, the TARC (pg/mL), A549 cells + IL-13 + TNFα; control antibody at 0.021 nM (part 2, with hP4 4H12) [26] was 2580 pg/mL and the TARC (pg/mL), A549 cells + IL-13 + TNFα; control antibody at 0.11 nM [26] was 2780 pg/mL. The TARC (pg/mL), A549 cells + IL-13 + TNFα; control antibody at 0.11 nM (part 2, with hP4 4H12) [26] was 2570 pg/mL, the TARC (pg/mL), A549 cells + IL-13 + TNFα; control antibody at 0.5 nM (part 2, with hP4 4H12) [26] was 2580 pg/mL and the TARC (pg/mL), A549 cells + IL-13 + TNFα; control antibody at 0.53 nM [26] was 2840 pg/mL. The TARC (pg/mL), A549 cells + IL-13 + TNFα; control antibody at 2.67 nM [26] was 2720 pg/mL, the TARC (pg/mL), A549 cells + IL-13 + TNFα; control antibody at 2.7 nM (part 2, with hP4 4H12) [26] was 2790 pg/mL and the TARC (pg/mL), A549 cells + IL-13 + TNFα; control antibody at 13.3 nM [26] was 2820 pg/mL. It also gave a TARC (pg/mL), A549 cells + IL-13 + TNFα; control antibody at 13.3 nM (part 2, with hP4 4H12) [26] of 2870 pg/mL, a TARC (pg/mL), A549 cells + IL-13 + TNFα; control antibody at 66.7 nM [26] of 2700 pg/mL and a TARC (pg/mL), A549 cells + IL-13 + TNFα; control antibody at 66.7 nM (part 2, with hP4 4H12) [26] of 2920 pg/mL. For the same substance, the VCAM-1 fluorescence intensity, HUVEC + IL-13 0.5 ng/mL + TNFα; control antibody at 0.0002 nM [26] was 347, the VCAM-1 fluorescence intensity, HUVEC + IL-13 0.5 ng/mL + TNFα; control antibody at 0.001 nM [26] was 369 and the VCAM-1 fluorescence intensity, HUVEC + IL-13 0.5 ng/mL + TNFα; control antibody at 0.004 nM [26] was 373. It also gave a VCAM-1 fluorescence intensity, HUVEC + IL-13 0.5 ng/mL + TNFα; control antibody at 0.021 nM [26] of 369, a VCAM-1 fluorescence intensity, HUVEC + IL-13 0.5 ng/mL + TNFα; control antibody at 0.11 nM [26] of 340 and a VCAM-1 fluorescence intensity, HUVEC + IL-13 0.5 ng/mL + TNFα; control antibody at 0.53 nM [26] of 302. The VCAM-1 fluorescence intensity, HUVEC + IL-13 0.5 ng/mL + TNFα; control antibody at 2.67 nM [26] was 354 and the VCAM-1 fluorescence intensity, HUVEC + IL-13 0.5 ng/mL + TNFα; control antibody at 13.3 nM [26] was 341.
